# According to PMC11519228, “Sugar alcohol degradation in Archaea: uptake and degradation of mannitol and sorbitol in Haloarcula hispanica” (Extremophiles, 2024):
# B1: KHK (Haloarcula marismortui ATCC 43049) (protein)
# chain: MDEETRRAVATADEALPTSDALPDAIDTGRVVFGFDGYLDRVREVVADRIDPESHERLATLESFGDRIDRSVAADSSLSFEWLQQGSRTGGHTSHLARAFGGWSFDPVMVGMYGDPVHDAFETEFGEYELHSLGEPGVTDAVEFDDGKLMLTEIGDTMSLDWAELDTAFGHDRLAEKLDGASLLGTGYWSETPDLPTVFDGLRTLWDGIDDPPETVLVDPGDVRKLDADRLRAGREAIGRLDEVTDVVVTSNRAETGVLADAYAGDAERSFADDAEAVFEALEPTWFVGHGVEQSVVVTAAGTDSVAVPSVSDPELTTSSGDHFNAGLGLARIADLSPAAAVVVGNAVAGYFVRTADQPSLADVRAFVDEYLEKF
# notes: full-length gene from genomic DNA, N-terminal 6xHis tag, expressed in Haloferax volcanii H1209 (pTA963)
# B2: SorDH (Haloarcula hispanica ATCC 33960) (protein)
# chain: MRTAVLVEPNEFELEDRPRPSPGPDDVLVAVRDVGICGSDVHYYEHGRIGDYVVEDPLVLGHESAGEVVEVGENVTHHEPGDRVALEPGVPCRRCAHCKRGDYHLCEEVTFMATPPHDGAFTEYVSWPADFAYTLPEAVSTAEGALCEPLSVGIHACRRGSVGTGDTVLITGAGPIGLMVLEAARAAGATDVILTDVVDEKLTFAEERGADLTVNVTETDLDAAVAEYTDGVGADVVVEASGAEPSIKSTIDVVRRGGTVVLVGLASEAEVPIDVLELIDNEVDVHGSFRYKNTYDAAVDLLADGEVDVEGIIDFESELEDIDDAFRRAMEPTVVKGMISLDS
# notes: full-length gene from genomic DNA, N-terminal 6xHis tag, expressed in Haloferax volcanii H1209 (pTA963), Ni-NTA and size exclusion
# B3: MtlDH (Haloarcula hispanica ATCC 33960) (protein)
# chain: MRASTLTDVGEITVEERDRPDPADDEVLVQVGACSVCMTDYHMYHGTFAAETPLVLGHEGAGTVAEVGADVEGFAVGDRVAINPTVPCNACSYCKKGETHLCENNTSIGGAGDTILDGAFAEYVRVPAINVEDIGEMSFERAALAEPLACCVHGVEQTDIKPGDSVGIIGAGPIGLLLLQAFRNAGAAPIVVSELDDERRELAADLGADAVVDPNEEDPEEAICAAAGGPVDVGAEAIGLVPTIKQANAVTASGGSTLIFGVPDQEATMEISPFDVFFDEVDYRGSFSLTTEDFERAITLLRHERIDAETLITERIGLDDLPTAFERMGNAEGLKKVVVPGDSE
# notes: as for B2
# B4: fructose-1-phosphate kinase (1-PFK) from Haloarcula hispanica (enzyme, UniProt G0HX83 1-302, looked up)
# chain: MIVTVTYNPAVDQTIQFDEQMAPDRVMRADEAQFDAGGKGINAAQFLTAMDRPCVATGLLGGFTGSFIRETLQDDGVETAFVDVDGTTRLNTTAIAAAGEYKLNQAGPTVGESVVDALLEQVRAQSPDRVLIGGSLPPGLSPNAIDRIAAGGDWETIVDTGGDVLRELDAQYGLCKPNRAELGDATGADVSTVEGCADAADAFRDRGFDRVLASLGADGAVLVGDTGRLYAEALDINVVDTVGAGDALLSGVLSAWEAGADDETALRTGVAVSSQVVQRAGTAVPDLNDIGSLRDGVTVRQL
# notes: fructose-1-phosphate kinase of Haloarcula hispanica, gene fruK (HAH_1077), amplified from genomic DNA; subunits of 31.2 kDa; The gene was cloned into pTA963 with 6 x CAC fused to its 5' end (N-terminal 6 x His tag); also called F1P kinase; fruK; not shown: His6, N-terminal, kept
# Experiments:
# [1] = target: ketohexokinase (KHK) from Haloarcula marismortui (Haloarcula marismortui); assay: SEC; native molecular mass on a size exclusion column (superdex HiLoad 16/600 200 pg) calibrated with proteins from the HMW and LMW kits; purified His-tagged enzyme
# [2] = substrate: Nc1ncnc2c1ncn2[C@@H]1O[C@H](COP(=O)(O)OP(=O)(O)OP(=O)(O)O)[C@@H](O)[C@H]1O; assay: coupled pyruvate kinase / lactate dehydrogenase photometric assay, Michaelis-Menten fit; format: biochemical, Haloarcula marismortui; details: 100 mM Tris-HCl, 1.5 M KCl, pH 7.5, 20 mM fructose, 10 mM MgCl2, 37 °C
# [3] = substrate: OC[C@@H](O)[C@@H](O)[C@H](O)[C@@H](O)CO; assay: photometric NADH assay, Michaelis-Menten fit; format: biochemical, Haloarcula hispanica; details: 50 mM Tris-HCl, 1.5 M KCl, 37 °C
# [4] = substrate: NC(=O)c1ccc[n+]([C@@H]2O[C@H](COP(=O)(O)OP(=O)(O)OC[C@H]3O[C@@H](n4cnc5c(N)ncnc54)[C@H](O)[C@@H]3O)[C@@H](O)[C@H]2O)c1; assay: photometric NADH assay, Michaelis-Menten fit; format: biochemical, Haloarcula hispanica; details: 50 mM Tris-HCl, 1.5 M KCl, 37 °C, varied: cofactor
# [5] = substrate: OC[C@@H](O)[C@@H](O)[C@H](O)[C@H](O)CO; assay: photometric NADH assay, Michaelis-Menten fit; format: biochemical, Haloarcula hispanica; details: 50 mM Tris-HCl, 1.5 M KCl, pH 7.5, 1 mM MnCl2, 1 mM NAD+, 37 °C
# [6] = target: the molecule itself; assay: SEC; native molecular mass on a size exclusion column (superdex HiLoad 16/600 200 pg) calibrated with proteins from the HMW and LMW kits; purified His-tagged enzyme
# [7] = substrate: Nc1ncnc2c1ncn2[C@@H]1O[C@H](COP(=O)(O)OP(=O)(O)OP(=O)(O)O)[C@@H](O)[C@H]1O; assay: coupled pyruvate kinase / lactate dehydrogenase photometric assay, Michaelis-Menten fit; format: biochemical, Haloarcula hispanica; details: 50 mM Tris-HCl, 1.5 M KCl, pH 7.5, 4 mM fructose-1-phosphate, 10 mM MgCl2, 37 °C
molecule,measurement,setting,value
ketohexokinase (KHK) from Haloarcula marismortui (enzyme),stoichiometry N,[1],2
B1,Km,[2],1290 ± 120 µM
B2,Km,"[3]; pH 7.5, 1 mM MnCl2, 2 mM NAD+",14700 ± 7800 µM
same,Km,"[4]; pH 7.5, 1 mM MnCl2, 15 mM sorbitol",1200 ± 350 µM
B3,Km,[5],2600 ± 270 µM
same,Km,"[3]; pH 7.5, 1 mM MnCl2, 1 mM NAD+, sorbitol up to 100 mM",27600 ± 2660 µM
same,Km,"[4]; pH 7.5, 1 mM MnCl2, 10 mM mannitol",420 ± 30 µM
B4,stoichiometry N,[6],2
same,Km,[7],60 ± 4 µM
